Laboratory results taken from the nanobody polyreactivity screen of Harvey et al. (2022).

Assay: yeast display, Sf9 membrane polyspecificity reagent, FACS + sequencing; frameworks hold sequencing errors
Summary of the method: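 A nanobody's polyreactivity label depends on the gate it was sorted from. Yeast display cells were stained with 10% biotinylated, detergent-solubilized Sf9 membrane reagent for 1 hour at 4 °C, enriched on streptavidin microbeads and sorted by FACS. The low and high (top ~1%) gates were set on anti-HA fluorescence for expression and streptavidin fluorescence for reagent binding.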

Sequence	polyreactivity (PSR sort gate)
QVQLVESGGGLVQAGGSLRLSCAASGSIFGAYAMGWYRQAPGKERELVAAIDKSTGSTYYADSVKGRFTISRDNAKNTVYLQMNSLKPEDTAVYYCAKDWGVYQYSYDYWGQGTQVTVSS	low polyreactivity
QVQLVESGGGLVQAGGSLRLSCAASGSIFGAYAMGWYRQAPGKERELVAAISGSGTSTYYADSVKGRFTISRDNAKNTVYLQMNSLKPDDTAVYYCATAKLTWRSQGLDYWGQGTQVTVSS	low polyreactivity
QVQLVESGGGLVQAGGSLRLSCAASGSIFGAYAMGWYRQAPGKERELVAAISSSVDRTYYADSVKGRFTNSRDNAKNTVYLQMNCLKPEDTAVYYCAARWGTRDRTKYYYWGQGTQVTVSS	high polyreactivity
QVQLVESGGGLVQAGGSLRLSCAASGSIFGAYAMGWYRQAPGKERELVAVIRWGGGSTYADSVKGRFTISRDNAKNTVYLQMNRLKPEDTAVYYCNRDKSWADLYSHAYDYWGQGTQVTVSS	low polyreactivity
QVQLVESGGGLVQAGGSLRLSCAASGSIFGAYMGWYRQAPGTEREFVAAINRSGSSTYYADSVKGRFTISRDNAKNTVYLQMNSLKPEDTAVYYCAAKYPGGETYPFDYWGQGTQVTVSS	low polyreactivity
QVQLVESGGGLVQAGGSLRLSCAASGSIFGAYTMGGYRQAPGKERELVAAISIGGSTNYADSVKGRFTISRDYAKNTVYLQMNSLKPEDSAVYYCNAEPDLEDWWWAIGLYDYWGQGTQVTVSS	high polyreactivity
QVQLVESGGGLVQAGGSLRLSCAASGSIFGAYTMGWYRPAPGKERELVAALSIGGSTNYADSVKGRFTISRDNAKNTVYLQMNSLKPEDTAVYYCNAEPHREDWWWAIGLYDYWGQGTQVTVSS	high polyreactivity
QVQLVESGGGLVQAGGSLRLSCAASGSIFGAYTMGWYRQAPGKERELVAAISRSGSTYYADSVKGRFTISRDNAKNTVYLQMKSLKPEDTAVYYCYGVGYSGLRRYYKYDYWGQGTQVTVSS	high polyreactivity
QVQLVESGGGLVQAGGSLRLSCAASGSIFGAYVMGWYRQAPGKERELVAAISRSGASTYYADSVKGRFTISRDNAKNTVYLQMNSLKPEDTAVYYCAARDRQRVSYCYWGQGTQVTVSS	high polyreactivity
QVQLVESGGGLVQAGGSLRLSCAASGSIFGAYVMGWYRQAPGKERELVAAITRRGGSTYYADSVKGRFTISRDNAKNTVYLQMNSLKPEDTAVYYCAARRGAGDGYWGQGTQVTVSS	high polyreactivity
QVQLVESGGGLVQAGGSLRLSCAASGSIFGDNAMAWYRQAPGKERELVARISSGGNTYYADSVKGRFTISRDNAKNTVYLQMNSLKPEDTAVYYCAAAIKVRYKKFPYYYWGQGTQVTVSS	high polyreactivity
QVQLVESGGGLVQAGGSLRLSCAASGSIFGDNAMGWYRQAPGKERELVAAISIVGSTSYADSVKGRFTISRDNAKNTVYLQMNSLKPEDTAVYYCAADTFYSYYDMDYWGQGTQVTVSS	low polyreactivity
QVQLVESGGGLVQAGGSLRLSCAASGSIFGDNAMGWYRQAPGKERELVAAITSSGGSTYYADSVKGRFTISRDNAKNTVYLQMNSLKPEDTAVYYCNADFGYGWYLRYDYWGQGTQVTVSS	high polyreactivity
QVQLVESGGGLVQAGGSLRLSCAASGSIFGDNAMGWYRQAPGKERELVAAITTGASRTYYADSVKGRFTISRDNAKNTVYLQMNSLKPEDTAVYYCNASDPSWREYDYWGQGTQVIVSS	low polyreactivity
QVQLVESGGGLVQAGGSLRLSCAASGSIFGDYAMGWYRQAPGKERELVAAITSSGGITYYADSVKGRFTISLDNAKNTVYLQMKSLNPEDTAVYYCAAYGYGSNYRYTGYYYWGQGTQVTVSS	low polyreactivity
QVQLVESGGGLVQAGGSLRLSCAASGSIFGDYVMGWYRQAPGKERELVAAITFGGGRTYYADSVKGRFTISRDNAKNTVYLQMNSLKPEDTAVYYCAVSRKGLGSVEYWGQGTQVTVSS	low polyreactivity
QVQLVESGGGLVQAGGSLRLSCAASGSIFGENARGWYRQAPGKERELVAAITSGGSTYYADSVKGRFTISRDNAKNTVYLQMNSLKPVDTAVYYCAASGRVGPGYWYDSWGQGTQVTVSS	low polyreactivity
QVQLVESGGGLVQAGGSLRLSCAASGSIFGEYAMGWYRQAPGKERELVADITTGGNTNYADSVKGRFTISRDYAKNTVYLQMNSLKPEDTAVYYCADEANYYVIFHGSWYTDDYWGQGTQVTVSS	low polyreactivity
QVQLVESGGGLVQAGGSLRLSCAASGSIFGFNAMGWYRQAPGKERELVAAINNGGSTNYADSVKGRFTISRDNAKNTVYLQMNSLKPEDTAVYYCAAVGGWRWSNQDYRYPYYYWGQGTQVTVSS	high polyreactivity
QVQLVESGGGLVQAGGSLRLSCAASGSIFGFNTMGWYRQAPGKERELVATINWSGGSTYYADSVKGRFTISRDNAKNTVYLQMNSLKPEDTAVYYCNAGPFSGRLFTTYASRGRYDYWGQGTQVTVSS	low polyreactivity
QVQLVESGGGLVQAGGSLRLSCAASGSIFGFYAMGWYRQAPGKERELVAAISSDGGSTYYADSVKGRFTISRDNAKNTVYLQMNSLKPEDTAVYYCAAAHGSIYDSTYYEYYYWGQGTQVTVSS	low polyreactivity
QVQLVESGGGLVQAGGSLRLSCAASGSIFGFYAMGWYRQAPGKERELVASITISGGSTYYADSVKGRFTISRDNAKNTVYLQMNSLKPEDTAVYYCAARRYWDYNYWGQGTQVTVSS	low polyreactivity

Sequence	polyreactivity (PSR sort gate)
QVQLVESGGGLVQAGGSLRLSCAASGSIFGGNAMGCYRQAPGKERELVAAITDGGNTNYADSVKGRFTISRDNAKNTVYLQMNSLKPEDTAVYYCAARMPGTYGGRYGYDYWGQGTQVTVSS	low polyreactivity
QVQLVESGGGLVQAGGSLRLSCAASGSIFGGNAMGWYRQAPGKERELVAAISGSGGSTYYADSVKGRFTISRDNAKNTVYLQMNSLKPEDTAVYYCAAGIYRGRNYYYWGQGTQVTVSS	high polyreactivity
QVQLVESGGGLVQAGGSLRLSCAASGSIFGGNAMGWYRQAPGKERELVATITDRGSSTYYADSVKGRFTISRDNAKNTVYLQMNSLKPEDTAVYYCATAFPDVPEPDYWGQGAQVTVSS	low polyreactivity
QVQLVESGGGLVQAGGSLRLSCAASGSIFGGYAMGWYRQAPGKERELVAAIDESGGSTYYADSVKGRFTISRDNAKNTVYLQMNSLKPDDTAVDYCLVFRDDSGPGDYYYWGQGTQVTVSS	low polyreactivity
QVQLVESGGGLVQAGGSLRLSCAASGSIFGGYAMGWYRQAPGKERELVATITRGGSTYYADSVKGRFTISRDNAKNTVYFQMNSLKPEDTAVYYCAARLRSKTYYTLEFDYWGQGTQVTVSS	high polyreactivity
QVQLVESGGGLVQAGGSLRLSCAASGSIFGGYAMGWYRQAPGKERELVATSYADSVKGRFTISRDIAKNTVYLQMNSLKPEDTAVYYCAADPPLEGVHGYNYWGQGTQVTVSS	low polyreactivity
QVQLVESGGGLVQAGGSLRLSCAASGSIFGGYAMGWYRQPPGKERELVAAITWGGGSTYYADSVKGRFTISRDNAKNTVYLQMNSLKPEDTAVYYCAADRSWYDWEDDYWGQGTQVTVSS	low polyreactivity
QVQLVESGGGLVQAGGSLRLSCAASGSIFGGYGMGWYRQAPGKERELVAAINSGSSTYYADSVKGRFTISRDNAKNTVYLQMNSLKPEDTAVYYCAARPYPHSAYEGDYWGRGTQVTVSS	low polyreactivity
QVQLVESGGGLVQAGGSLRLSCAASGSIFGGYTMGWYRQAPGKERELVAAISRRGGNTYYADSVKGRFTISRDYAKNTVYLHMKSMKPEDTAVYYCAVRWPSARIPVKLDYWGQGTQVTVSS	high polyreactivity
QVQLVESGGGLVQAGGSLRLSCAASGSIFGHYAMGWYRQAPGKERELVAAISYSGGSTYYADSVKGRFTISRDNAKNTVYLQMNILKPEDTAVYYCNADLYDAGSEMDYWGQGTQVTVSS	high polyreactivity
QVQLVESGGGLVQAGGSLRLSCAASGSIFGINAMGWYRQAPGKERELVAAISYSGGSTYYADTVKGRFTISRDNAKNTVYLQMNSLKPEDTAVYYCARRGKHVAGRYYYWGQVTQVTVSS	high polyreactivity
QVQLVESGGGLVQAGGSLRLSCAASGSIFGINTMGWYRHAPGKEREFVASIRFNDGDTYYADSVKGRFTISRDTAKNTVYLKMNSLKPEDTAVYYCNVQTYVELRLDYWGQGTQVTVSS	low polyreactivity
QVQLVESGGGLVQAGGSLRLSCAASGSIFGINTMRWYRQAPGKEREFVASIRFNDGDTYYADSVKGRFTISRDNAKNTVYFQMNSLKPEDTAVYYFNVQTYVELRLDYWGQGTHVTVSS	low polyreactivity
QVQLVESGGGLVQAGGSLRLSCAASGSIFGIYAMGWYRQAPGKERELVAAIRRGGSTYYADSVKGRFTISRDNAKNTVYLQMNSLKPEDTAVYYCAGRKYRLWGKGVDYDFCGQGTQVTVSS	high polyreactivity
QVQLVESGGGLVQAGGSLRLSCAASGSIFGIYVMGWYRPAPGKERELVAGISTRGGSTYYADSVKGRFTISRDNAKNTVYLQMNSLKPEDTAVYYCAAVPASYRYPMYYWGQGTQVTVSS	low polyreactivity
QVQLVESGGGLVQAGGSLRLSCAASGSIFGKNAMGWYRQAPGKDRELVAAISWSGGRTYYADSVKGRFTISRDNAKNSVYLQMNSLKPEDTAVYYCAASWWGVARGSSRKKYDYWGQGTQVTVSS	high polyreactivity
QVQLVESGGGLVQAGGSLRLSCAASGSIFGKNAMGWYRQARGKERELVAAITWSGGSTYYADSVKGRFTISRENAKNTVYLQMNSLKPEDTAVYYCNAVRVRVTSHRIRQLDFGYWGQGTQVTVSS	low polyreactivity
QVQLVESGGGLVQAGGSLRLSCAASGSIFGKYTMGWYRQAPGKERELVAAISRSGSSTYYADSVKGRFTISRDNAKNTVYLQMNSLKPEDTAVYYCAAKFYYGVTSKFESWGQGTQVTVSS	high polyreactivity
QVQLVESGGGLVQAGGSLRLSCAASGSIFGKYVMGWYRQAPGKERELVAAITFGGGSTYYADSVKGRFTISRDNAKNTVYFQMNSLKPEDTAVYYCAAKSYDERLYRRPRDYWGQGTQVTVSS	high polyreactivity
QVQLVESGGGLVQAGGSLRLSCAASGSIFGLNAMGWYRQPPGKERELVAAINSDGDTYYADSVKGRFTISRDNAKNTVYLQMNSLKPEDTAVYYCSADYYWDPFDSNFGHVPQEYESWGQGTQVTVSS	low polyreactivity
QVQLVESGGGLVQAGGSLRLSCAASGSIFGLYAMGWYRQAPGKEREFVASITYSGGSTYYADSVKGRFTISRDNAKNTVYLQMNSLKPEDTAVYYCAAESYWGYDYWGQGTQVTVSS	high polyreactivity
